This note sets out measurements from patent publication US20130064881A1 (GRADALIS, published 2013).

In one experiment the target is T1, progesterone receptor (UniProt P06401 1-933, limits assumed).
T1 construct: The assay and the construct are not described; also called a related receptor, the progesterone receptor
T1 sequence (looked up): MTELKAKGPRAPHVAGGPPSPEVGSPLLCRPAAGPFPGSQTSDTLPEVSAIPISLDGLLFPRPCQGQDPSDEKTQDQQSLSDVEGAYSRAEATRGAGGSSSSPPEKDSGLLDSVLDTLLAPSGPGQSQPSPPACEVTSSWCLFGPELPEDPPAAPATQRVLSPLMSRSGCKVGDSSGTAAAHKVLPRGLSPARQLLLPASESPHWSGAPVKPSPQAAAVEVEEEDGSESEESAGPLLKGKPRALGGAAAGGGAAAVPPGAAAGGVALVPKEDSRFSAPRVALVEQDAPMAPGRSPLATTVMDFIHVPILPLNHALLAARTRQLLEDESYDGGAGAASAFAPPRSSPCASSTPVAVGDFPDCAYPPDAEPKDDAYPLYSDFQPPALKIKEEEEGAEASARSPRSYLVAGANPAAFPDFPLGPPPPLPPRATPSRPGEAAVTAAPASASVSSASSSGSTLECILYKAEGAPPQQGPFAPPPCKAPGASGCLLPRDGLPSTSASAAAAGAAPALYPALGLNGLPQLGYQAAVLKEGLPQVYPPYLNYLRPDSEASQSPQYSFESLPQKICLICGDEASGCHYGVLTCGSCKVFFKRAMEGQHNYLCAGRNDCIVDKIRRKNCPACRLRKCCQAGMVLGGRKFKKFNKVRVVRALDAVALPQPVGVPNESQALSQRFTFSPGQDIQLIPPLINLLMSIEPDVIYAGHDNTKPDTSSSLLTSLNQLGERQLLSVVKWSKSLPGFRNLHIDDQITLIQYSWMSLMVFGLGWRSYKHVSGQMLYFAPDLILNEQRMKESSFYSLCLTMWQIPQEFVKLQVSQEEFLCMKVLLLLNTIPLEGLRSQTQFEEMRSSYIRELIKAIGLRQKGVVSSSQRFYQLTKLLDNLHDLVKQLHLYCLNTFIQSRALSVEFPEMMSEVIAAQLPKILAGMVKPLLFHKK
Kind of experiment: not described.

Experiment [1] has as its target T2, full length androgen receptor (human, UniProt P10275 1-920).
T2 construct: Full length AR expressed inside transfected cells (intracellular, not on the surface); also called AR; full length AR
T2 sequence: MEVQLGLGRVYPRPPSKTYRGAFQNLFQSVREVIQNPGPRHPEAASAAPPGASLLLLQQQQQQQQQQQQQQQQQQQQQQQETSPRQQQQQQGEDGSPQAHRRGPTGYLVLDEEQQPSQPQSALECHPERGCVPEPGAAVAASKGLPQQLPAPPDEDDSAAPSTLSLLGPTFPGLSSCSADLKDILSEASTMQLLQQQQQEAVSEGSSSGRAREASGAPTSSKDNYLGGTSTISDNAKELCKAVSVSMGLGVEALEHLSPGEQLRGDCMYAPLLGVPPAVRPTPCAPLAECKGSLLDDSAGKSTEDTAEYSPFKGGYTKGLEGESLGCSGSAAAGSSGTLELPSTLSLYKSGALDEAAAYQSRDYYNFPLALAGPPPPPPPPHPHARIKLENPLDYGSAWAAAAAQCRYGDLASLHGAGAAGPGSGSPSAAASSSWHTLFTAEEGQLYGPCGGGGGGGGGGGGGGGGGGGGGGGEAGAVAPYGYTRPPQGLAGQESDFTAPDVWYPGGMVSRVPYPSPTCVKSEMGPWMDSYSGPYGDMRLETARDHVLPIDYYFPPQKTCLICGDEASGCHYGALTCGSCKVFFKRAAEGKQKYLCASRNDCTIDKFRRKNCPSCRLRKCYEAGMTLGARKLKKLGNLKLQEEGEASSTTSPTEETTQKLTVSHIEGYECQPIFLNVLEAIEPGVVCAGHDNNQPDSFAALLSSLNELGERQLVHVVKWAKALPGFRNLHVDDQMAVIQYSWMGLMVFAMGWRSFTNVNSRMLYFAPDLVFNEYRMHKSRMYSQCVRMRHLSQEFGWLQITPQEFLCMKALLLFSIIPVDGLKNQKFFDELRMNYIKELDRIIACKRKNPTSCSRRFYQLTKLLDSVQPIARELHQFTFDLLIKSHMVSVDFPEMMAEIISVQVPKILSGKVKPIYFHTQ
The experiment in a line: not described.

B1: SRCdp200: Amino acids 1050-1240 of SRC-1 (peptide)
peptide: MAPNQLRLQLQQRLQGQQQLIHQNRQAILNQFAATAPVGINMRSGMQQQITPQPPLNAQMLAQRQRELYSQQHRQRQLIQQQRAMLMRQQSFGNNLPPSSGLPVQMGNPRLPQGAPQQFPYPPNYGTNPGTPPASTSPFSQLAANPEASLANRNSMVSRGMTGNIGGQFGTGINPQMQQNVFQYPGAGMVPQ
notes: Expressed in cells from a transfected plasmid; also called SRC derived peptide; 200 amino acid fragment
On to B1, for which the binding result with progesterone receptor is “no binding”; in experiment [1], “binds”.

B2: SRCdp100: Amino acids 1050-1150 of SRC-1 (peptide)
peptide: MAPNQLRLQLQQRLQGQQQLIHQNRQAILNQFAATAPVGINMRSGMQQQITPQPPLNAQMLAQRQRELYSQQHRQRQLIQQQRAMLMRQQSFGNNLPPSSGL
notes: Expressed in cells from a transfected plasmid; also called SRCdp(P100); SRC derived peptide
In the case of B2, the binding result in the experiment with progesterone receptor is “no binding”; in experiment [1], “binds”.
